Reference: the DeepSol protein solubility set

test: soluble on expression in E. coli; label from the status in PepcDB or PDB records

Row | Sequence | soluble on expression in E. coli
1 | MAHHHHHHMVLTSDRGWPYSWERGESGILPDCYLNSEVERVWQIVKKDLTKLFSSHGKNKPSCHPRVLIGTPGIGKSMNVGSYLLYQLLHYDVEQLPMVVYFIANLTFLFDKTAKMVSLYTNEASILRILDGLPDRGFKGHIIYDVAMKGHQPSIGLPCKGWGMIVVTPPDKNNHEWWAKQMGAEEFIINCPEENDVRAMCIWMKRNRPLQEQAEYWKEVNGRMNKVGPILRFIFGKQAYDDRIKACQQALDGMNASKFEGYLDIGYCCVSNDSDLSRKLVKVVRVRRGYNFASPLNVLISPHLERETLSRLEDGMKQSDFIFFVLRFWDYVPPYLIEKYAVSAFLNDDFLRAIRLKIKELWPPGRRESHRCALKEHSDTSFARKEVLPPPERLSNPVAMDHWVLYEPKVQNFPLVDGFFFVDSNPKTLVGLRMTTAGGHRTTTRTVRRFTE | not soluble
2 | MQIDFNSDMGESFGAWTIGDGVDTELMAFISSANIATGFHAGDPSTMRRTIEQAKRLGVAIGAHPGFRDLVGFGRRHINAPAQELVDDMLYQLGALRELARVQGVPLQHFKPHGALYMHLARDEEAARLLVENLQRLEPDLLLYCMPGSVICNVAQELGQPVVREFYADRAYDLSGSIVFTRNVRAHDPAEVAARVIRACQQGLVRTVEGDDLAIQFDSICLHSDTPGALALAQATRQALDGAGIEVRTPRLEHHHHHH | not soluble
3 | LEANEGSKTLQRNRKMAMGRKKFNMDPKKGIQFLVENELLQNTPEEIARFLYKGEGLNKTAIGDYLGEREELNLAVLHAFVDLHEFTDLNLVQALRQFLWSFRLPGEAQKIDRMMEAFAQRYCLCNPGVFQSTDTCYVLSYSVIMLNTDLHNPNVRDKMGLERFVAMNRGINEGGDLPEELLRNLYDSIRNEPFKIPEDDGND | soluble
4 | MGSDKIHHHHHHMNAQTPIRRPISLVLASPRGFCAGVDRAIQIVERAVEKFGAPVYVRHEIVHNRHVVDRLKALGAVFIEELEEAPDDRPVVFSAHGVPKSVPAEAKARQMIYLDATCPLVSKVHVEAQKHYDAGREIVLIGHAGHPEVIGTMGQLPEGAVTLIEDLKDAAAWEPKDAANVAFLTQTTLSVDDTADMVALLRERFPGIAAPHKEDICYATTNRQDAVKHLAEQSELILVVGSKNSSNSVRLKEVGLKAGARDAHLIDDASGIDWTWFDGISRVGLTAGASAPEDLVQGVIDAISARFDTTVEELVEARETITFKLPRLLTA | not soluble
5 | MSVDMNSQGSDSNEEDYDPNCEEEEEEEEDDPGDIEDYYVGVASDVEQQGADAFDPEEYQFTCLTYKESEGALNEHMTSLASVLKVSHSVAKLILVNFHWQVSEILDRYKSNSAQLLVEARVQPNPSKHVPTSHPPHHCAVCMQFVRKENLLSLACQHQFCRSCWEQHCSVLVKDGVGVGVSCMAQDCPLRTPEDFVFPLLPNEELREKYRRYLFRDYVESHYQLQLCPGADCPMVIRVQEPRARRVQCNRCNEVFCFKCRQMYHAPTDCATIRKWLTKCADDSETANYISAHTKDCPKCNICIEKNGGCNHMQCSKCKHDFCWMCLGDWKTHGSEYYECSRYKENPDIVNQSQQAQAREALKKYLFYFERWENHNKSLQLEAQTYQRIHEKIQERVMNNLGTWIDWQYLQNAAKLLAKCRYTLQYTYPYAYYMESGPRKKLFEYQQAQLEAEIENLSWKVERADSYDRGDLENQMHIAEQRRRTLLKDFHDT | soluble
6 | SLAGVSYAAPWWVSLLHRLPHFDLRWEATSSQFRPEDADYQQAASAYGNGETSDGIHRATYSLRHANRTVAGVQDRVWDTAAALNRTAEPNLQSLERQLAGRQEPLRAVQRLQTGAARSSKGSAACSIPHTWQQKRGPDDDGEEETAPGPR | soluble
7 | MSLWTIMIGSKNRAKVHALQEVVIRDKIIVRSEAVPSDVASQPFSDQETIQGAINRANHCLSFDGVDYGVGLEGGVVRSEYGLFLCNWGALVSQTGDQWVAGGARVPLPQEVAHELEGGKELGDIMESLTKNPDVRMTDGAIGYLTDGEISRKAMFQHVVHLLIGQARRDGHLLRTVTHEGHHHHHH | soluble
8 | MGSDKIHHHHHHMSLLDKLRELGISENLIKEIEKFRSQYPVDKEYESRIPVPTQFYYGSDVWEQAITAVLCGENLLLVGEKATGKNLFAENLAGVFNRPRWDVSFHVNMDAASLIGTDTFSAGEVTFRPGPVYTAAKTGGFAVLDEINMAKSEAMAVLHATLDFRRTIDVPGYDRLSLHPATRFIATMNYGYAGTKELNEALVSRFAVIRMPMISKESLVKLIKEHYPTIREAGANELAEVFLELHTKCKNGEISSKALDLRGLIGSIGMMEKGLNIYAALDMGITNKSFDEYEQTLIRDTIRARISRKMSREQLFC | not soluble
